Assay results taken from patent US20240239894A1 (AstraZeneca / MedImmune, published 2024).

Assays:
huBTN2A1 = target: T1, huBTN2A1 (human, UniProt Q7KYR7 29-248, limits assumed); assay: ELISA
T1 construct: Sourced antigen; construct not described; also called Human BTN2A1
T1 sequence (looked up): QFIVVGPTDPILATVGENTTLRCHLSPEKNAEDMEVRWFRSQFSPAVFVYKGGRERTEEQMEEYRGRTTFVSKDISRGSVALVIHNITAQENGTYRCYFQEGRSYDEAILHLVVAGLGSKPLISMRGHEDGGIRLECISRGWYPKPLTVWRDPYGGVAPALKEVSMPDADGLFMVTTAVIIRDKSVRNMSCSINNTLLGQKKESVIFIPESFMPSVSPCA

huBTNL3 = target: T2, huBTNL3 (human, UniProt Q6UXE8 18-237, limits assumed); assay: ELISA
T2 construct: Sourced antigen; construct not described; also called Human BTNL3
T2 sequence (looked up): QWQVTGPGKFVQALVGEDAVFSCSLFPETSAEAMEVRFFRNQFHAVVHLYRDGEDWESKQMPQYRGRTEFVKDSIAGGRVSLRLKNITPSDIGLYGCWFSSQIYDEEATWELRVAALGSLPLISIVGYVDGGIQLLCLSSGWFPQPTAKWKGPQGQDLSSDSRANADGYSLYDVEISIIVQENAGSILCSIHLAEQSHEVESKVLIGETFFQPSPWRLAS

[1] = target: T3, Human B7-H4-Fc (Human B7H4 ECD, Fc_6His) (human); assay: HTRF binding, murine IgG1
T3 construct: also called FcHis6 tagged human B7-H4
T3 sequence (Q7Z7D3 whole entry, looked up): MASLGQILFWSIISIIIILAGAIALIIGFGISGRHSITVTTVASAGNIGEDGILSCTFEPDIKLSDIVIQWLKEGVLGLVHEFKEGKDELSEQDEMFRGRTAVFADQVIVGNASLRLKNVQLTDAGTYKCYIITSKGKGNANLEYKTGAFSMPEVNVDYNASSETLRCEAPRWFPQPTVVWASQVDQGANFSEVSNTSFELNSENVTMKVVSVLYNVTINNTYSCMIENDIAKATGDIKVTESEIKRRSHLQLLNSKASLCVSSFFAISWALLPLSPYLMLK

[2] = target: T4, Cyno B7-H4-Fc (Cyno B7H4 ECD, FcTM_6His) (cynomolgus monkey); assay: HTRF binding, murine IgG1
T4 construct: extracellular domain; also called cynomolgus B7-H4-Fc

[3] = target: T5, Murine B7-H4-Fc (Mouse B7H4 ECD, Fc_6His) (mouse, UniProt Q7TSP5 25-257); assay: HTRF binding, murine IgG1
T5 construct: extracellular domain; also called mouse B7-H4-Fc; FcHis6 tagged murine B7-H4
T5 sequence (Q7TSP5 whole entry, looked up): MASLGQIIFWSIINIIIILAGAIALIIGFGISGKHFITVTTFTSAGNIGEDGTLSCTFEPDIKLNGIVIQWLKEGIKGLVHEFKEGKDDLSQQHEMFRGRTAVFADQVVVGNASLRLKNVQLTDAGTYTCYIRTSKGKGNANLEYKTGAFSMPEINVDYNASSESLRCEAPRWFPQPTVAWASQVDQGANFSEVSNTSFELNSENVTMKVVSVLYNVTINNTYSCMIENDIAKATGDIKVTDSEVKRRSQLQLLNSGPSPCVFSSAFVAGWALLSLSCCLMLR

huHHLA2 [4] = target: T6, huHHLA2 (human, UniProt Q9UM44 23-344); assay: ELISA, absorbance 450 nm, antigen human HHLA2 GST
T6 construct: Sourced antigen; construct not described; also called Human HHLA2
T6 sequence (looked up): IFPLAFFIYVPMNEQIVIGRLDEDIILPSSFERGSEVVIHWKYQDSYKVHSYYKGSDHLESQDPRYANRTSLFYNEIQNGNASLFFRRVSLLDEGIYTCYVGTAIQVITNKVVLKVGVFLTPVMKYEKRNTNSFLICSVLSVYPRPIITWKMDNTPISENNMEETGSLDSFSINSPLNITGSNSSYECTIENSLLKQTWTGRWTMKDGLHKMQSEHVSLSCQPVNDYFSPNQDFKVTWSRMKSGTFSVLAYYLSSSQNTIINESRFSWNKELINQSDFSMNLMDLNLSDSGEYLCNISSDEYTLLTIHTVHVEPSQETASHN

huBTN1A1 [5] = target: T7, huBTN1A1 (human, UniProt Q13410 27-242, limits assumed); assay: ELISA, absorbance 450 nm, antigen human BTN1A1 GST
T7 construct: Sourced antigen; construct not described; also called Human BTN1A1
T7 sequence (looked up): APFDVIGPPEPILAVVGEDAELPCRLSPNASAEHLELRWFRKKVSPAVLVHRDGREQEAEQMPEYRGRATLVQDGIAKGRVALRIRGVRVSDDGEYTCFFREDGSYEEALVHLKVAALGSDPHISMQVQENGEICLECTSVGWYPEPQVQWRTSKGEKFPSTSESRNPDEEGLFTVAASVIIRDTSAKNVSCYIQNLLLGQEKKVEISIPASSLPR

huBTN3A2 [6] = target: T8, huBTN3A2 (human, UniProt P78410 30-248, limits assumed); assay: ELISA, absorbance 450 nm, antigen human BTN3A2 GST
T8 construct: Sourced antigen; construct not described; also called Human BTN3A2

huB7-H3 [7] = target: T9, huB7-H3 (human, UniProt Q5ZPR3 29-461, limits assumed); assay: ELISA, absorbance 450 nm, antigen human B7-H3 (ECD) Fc
T9 construct: Sourced antigen; construct not described; also called Human B7-H3
T9 sequence (looked up): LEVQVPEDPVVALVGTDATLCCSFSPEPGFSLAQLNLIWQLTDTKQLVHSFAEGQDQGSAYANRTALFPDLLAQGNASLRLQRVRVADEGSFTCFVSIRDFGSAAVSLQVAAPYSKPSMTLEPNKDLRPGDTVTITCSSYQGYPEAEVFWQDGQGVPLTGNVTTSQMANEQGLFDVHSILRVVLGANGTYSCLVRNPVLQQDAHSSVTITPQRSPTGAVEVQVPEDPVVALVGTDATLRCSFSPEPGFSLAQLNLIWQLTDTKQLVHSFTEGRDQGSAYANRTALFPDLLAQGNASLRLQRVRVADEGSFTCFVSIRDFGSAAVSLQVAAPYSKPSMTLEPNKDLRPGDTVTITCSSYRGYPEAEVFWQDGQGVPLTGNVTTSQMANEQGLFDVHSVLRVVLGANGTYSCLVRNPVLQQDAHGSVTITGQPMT

huB7-H1 [8] = target: T10, huB7-H1 (human, UniProt Q9NZQ7 19-238); assay: ELISA, absorbance 450 nm, antigen human B7-H1(ECD) F10H
T10 construct: Sourced antigen; construct not described; also called Human B7-H1

huB7-H2 [9] = target: T11, huB7-H2 (human, UniProt O75144 19-258); assay: ELISA, absorbance 450 nm, antigen human B7-H2 (ECD) F10H
T11 construct: Sourced antigen; construct not described; also called Human B7-H2
T11 sequence (looked up): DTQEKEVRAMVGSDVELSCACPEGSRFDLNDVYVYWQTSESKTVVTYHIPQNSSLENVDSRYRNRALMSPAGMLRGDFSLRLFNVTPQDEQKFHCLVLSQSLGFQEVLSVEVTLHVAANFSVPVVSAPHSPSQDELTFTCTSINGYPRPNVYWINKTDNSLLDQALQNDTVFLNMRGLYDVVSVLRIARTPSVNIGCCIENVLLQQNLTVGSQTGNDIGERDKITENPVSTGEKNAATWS

huB7-H1 [10] = target: T10, huB7-H1; assay: ELISA
huB7-H2 [11] = target: T11, huB7-H2; assay: ELISA
huB7-H3 [12] = target: T9, huB7-H3; assay: ELISA
huBTN1A1 [13] = target: T7, huBTN1A1; assay: ELISA
huHHLA2 [14] = target: T6, huHHLA2; assay: ELISA
huBTN3A2 [15] = target: T8, huBTN3A2; assay: ELISA
human B7-H4 on cells = target: T12, human B7-H4 on cells (human, UniProt Q7Z7D3 25-282); assay: cell-based or functional assay
T12 sequence: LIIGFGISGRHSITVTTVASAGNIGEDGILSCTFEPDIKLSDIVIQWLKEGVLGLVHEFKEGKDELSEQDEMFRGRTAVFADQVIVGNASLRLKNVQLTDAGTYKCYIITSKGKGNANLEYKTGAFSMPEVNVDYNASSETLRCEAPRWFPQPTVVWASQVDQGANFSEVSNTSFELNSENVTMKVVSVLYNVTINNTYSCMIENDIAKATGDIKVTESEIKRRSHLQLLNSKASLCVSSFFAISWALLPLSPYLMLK

[16] = target: T13, Human B7-H4 ECD-Flag-His10 (monomeric) (human, UniProt Q7Z7D3 25-259); assay: Octet BLI, hIgG1-TM on Protein G (n = 4-7)
T13 construct: Minimally biotinylated for KinExA; also called hB7H4-ECD-Flag-His10; B7-H4-FLAG
T13 sequence: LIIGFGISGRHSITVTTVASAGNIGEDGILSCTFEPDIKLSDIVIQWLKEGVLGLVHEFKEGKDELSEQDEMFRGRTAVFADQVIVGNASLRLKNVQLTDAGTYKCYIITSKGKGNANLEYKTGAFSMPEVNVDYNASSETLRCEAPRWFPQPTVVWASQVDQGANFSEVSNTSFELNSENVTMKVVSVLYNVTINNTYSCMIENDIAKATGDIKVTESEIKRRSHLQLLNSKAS

[17] = target: T14, Murine B7-H4 ECD-Flag-His10 (monomeric) (mouse, UniProt Q7TSP5 25-257); assay: Octet BLI, hIgG1-TM on Protein G (n = 4-7)
T14 construct: extracellular domain; also called FlagHis10 murine B7-H4
T14 sequence (looked up): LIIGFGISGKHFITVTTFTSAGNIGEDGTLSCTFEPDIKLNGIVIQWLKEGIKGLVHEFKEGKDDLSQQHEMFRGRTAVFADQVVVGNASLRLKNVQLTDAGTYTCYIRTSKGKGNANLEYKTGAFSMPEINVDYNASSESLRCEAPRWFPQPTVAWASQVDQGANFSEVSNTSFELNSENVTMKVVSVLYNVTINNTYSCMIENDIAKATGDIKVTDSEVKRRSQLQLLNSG

[18] = target: T15, Human B7H4 ECD (SV), splice variant, 10His_FLAG (human); assay: Octet BLI, hIgG1-TM on Protein G (n = 4-7)
T15 construct: also called B7-H4-SV

[19] = target: T14, Murine B7-H4 ECD-Flag-His10 (monomeric); assay: Octet; summary table, repeats Table 9 (hIgG1-TM)
[20] = target: T15, Human B7H4 ECD (SV), splice variant, …; assay: Octet; summary table, repeats Table 9 (hIgG1-TM)
[21] = target: T13, Human B7-H4 ECD-Flag-His10 (monomeric); assay: Octet; summary table, rounded from Table 9 (hIgG1-TM)

T10 sequence (Q9NZQ7 19-238 limits assumed): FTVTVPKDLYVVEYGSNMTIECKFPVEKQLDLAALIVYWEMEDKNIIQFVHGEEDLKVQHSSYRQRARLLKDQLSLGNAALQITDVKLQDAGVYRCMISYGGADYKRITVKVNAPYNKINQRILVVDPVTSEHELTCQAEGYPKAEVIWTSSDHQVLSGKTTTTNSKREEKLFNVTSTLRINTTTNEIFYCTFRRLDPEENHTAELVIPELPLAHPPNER
T8 sequence (P78410 30-248 limits assumed): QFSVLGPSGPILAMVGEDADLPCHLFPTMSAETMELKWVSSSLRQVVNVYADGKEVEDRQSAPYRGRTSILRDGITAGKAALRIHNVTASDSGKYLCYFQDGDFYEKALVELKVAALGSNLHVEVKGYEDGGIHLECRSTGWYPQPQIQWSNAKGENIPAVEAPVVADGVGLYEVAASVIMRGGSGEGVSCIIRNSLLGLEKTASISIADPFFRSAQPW

B1: ZY0EP0-C07 murine IgG1 (antibody, V domains shown)
VH: QVQLVESGGVLVKPGGSLRLSCAASGFTLSDYYMSWIRQAPGMGLEWVSYISSSGSTIYYTDSVKGRFTISRDSAKNSLYLQMNSLRAEDTAVYYCARDGVGFDYWGQGTLVTVSS
VL: EIVLTQSPGTLSLFPGERATLSCRASQSVSSSYLAWYQQKPGQSPRLLIYAASSRATGIPDRFSGSGSGTDFTLTISRLEPEDFAVYYCQQYGSSPLYTFGQGTKLEIK
notes: also called ZY0EPO-C07
- binding result (huBTN2A1): no binding
- binding result (huBTNL3): no binding
- EC50 [1]: 0.95 nM
- Max [1]: 1740
- EC50 [2]: 1.28 nM
- Max [2]: 1250
- EC50 [3]: 0.49 nM
- Max [3]: 1910
- binding result (huHHLA2 [4]): no binding (tested: about 10 µg/ml (antigen))
- binding result (huBTN1A1 [5]): no binding (tested: 10 µg/ml (antigen))
- binding result (huBTN3A2 [6]): no binding (tested: about 10 µg/ml (antigen))
- binding result (huB7-H3 [7]): no binding
- binding result (huB7-H1 [8]): no binding (tested: 10 µg/ml (antigen))
- binding result (huB7-H2 [9]): no binding (tested: 10 µg/ml (antigen))

B2: ZY0EO5-E07 human IgG1-TM (antibody, V domains shown)
VH: QVQLQESGPGLVKPSQTLSLTCTVSGGSISSGGYYWSWIRQHPGKGLEWIGNIYYSGSTYYNPSLKSRVTISVDTSKNQFSLKLSSVTAADTAVYYCAREKALASVIPSGYENYYVVDVWGQGTTVTVSS
VL: DIQLTQSPSFLSASVGGRVTITCWASQGIAGYLAWYQQKPGKAPKLLIYAASTLQSGVPSRFSGSGSGTEFTLTISSLQPEDFATYYCQHLNSYPLTFGGGTKVEIK
notes: also called ZY0E05-E07; E05-E07
- binding result (huB7-H1 [10]): no binding
- binding result (huB7-H2 [11]): no binding
- binding result (huB7-H3 [12]): no binding
- binding result (huBTN1A1 [13]): no binding
- binding result (huHHLA2 [14]): no binding
- binding result (huBTN3A2 [15]): no binding
- binding result (huBTN2A1): no binding
- binding result (huBTNL3): no binding
- ZAP % Viability, OVCAR4 (human B7-H4 on cells): 58%
- ZAP % Viability, SKBR3 (human B7-H4 on cells): 79%
- Kd [16]: 19.8 nM
- koff [16]: 0.000338 s⁻¹
- kon [16]: 17100 M⁻¹ s⁻¹
- Kd [17]: 30 nM
- koff [17]: 0.000361 s⁻¹
- kon [17]: 12100 M⁻¹ s⁻¹
- Kd [18]: 264 nM
- koff [18]: 0.000499 s⁻¹
- kon [18]: 1890 M⁻¹ s⁻¹
- Kd [19]: 30 nM
- Kd [20]: 264 nM
- Kd [21]: 20 nM
